The values that follow come from patent US20230159632A1 (SHANGHAI JUNSHI BIOSCIENCES, published 2023).

The labels stand for the following.
B1: humanized antibody hu43 (antibody, human IgG4 S228P, kappa, V domains shown)
VH: QIQLVQSGAEVKKPGASVKISCKASGYIFTNYGMNWMRQAPGQGLEWMGWINDHTGEPTYADKFQGRVTFTLDTSASTAYMELSRLRSDDTAVYYCANYGFGYFDYWGQGTLVTVSS
VL: DVVMTQSPLSLPVTLGQPASISCRSSQSLVHSNGNSYLHWYLQKPGQSPQLLIYKVSNRFSGVPDRFSGSGSGTDFTLKISRVEAEDVGVYYCSQSTHVPYTFGQGTKLEIKR
B2: humanized antibody hu44 (antibody, human IgG4 S228P, kappa, V domains shown)
VH: B1 VH
VL: B1 VL with Y92F
B3: humanized antibody hu31 (antibody, human IgG4 S228P, kappa, V domains shown)
VH: B1 VH with I2V, I20V, A76I
VL: B1 VL
notes: Humanized from ch1
B4: humanized antibody hu59 (antibody, human IgG4 S228P, kappa, V domains shown)
VH: QVQLQESGPGLVKPSETLSLTCTVTGYSISSDYAWSWIRQPPGKGLEWIGFISYSGPTSYNPSLKSRVTISRDTSKNQFSLKLSSVTAADTAVYYCARGGDGDSFDYWGQGTLVTVSS
VL: DVVMTQSPLSLPVTLGQPASISCRSSQSIVHSNGNTYLDWYLQKPGKSPKLLIYKVSNRFSGVPDRFSGSGSGTDFTLKISRVEAEDLGVYYCFQGSHFPTFGQGTKLEIKR
B5: humanized antibody hu250 (antibody, human IgG4 S228P, kappa, V domains shown)
VH: B4 VH with T25S, S30T, S80F, K82Q, S84K, L113T
VL: B4 VL with S7T, P12S, L15P, R24K, K47Q, L88V, Q104G, L108V
B6: humanized antibody hu60 (antibody, human IgG4 S228P, kappa, V domains shown)
VH: B4 VH
VL: B4 VL with K47Q, D75S
B7: chimeric antibody ch16 (antibody, V domains shown)
VH: DVQLQESGPGLVKPSQSLSLTCTVTGYSITSDYAWSWIRQFPGNKLEWMAFISYSGPTSYNPSLKSRVSITRDTSKNQFFLQLKSVTTEDTATYYCARGGDGDSFDYWGQGTTLTVSS
VL: DVLMTQTPLSLPVSLGDQASISCRSSQSIVHSNGNTYLDWYLQKPGQSPKLLIYKVSNRFSGVPDRFSGSGSGTSFTLKISRVEAEDLGVYYCFQGSHFPTFGGGTKLEIK
B8: chimeric antibody ch1 (antibody, V domains shown)
VH: QIQLVQSGPELKKPGETVKISCKASGYIFTNYGMNWMKQAPGKGLKWMGWINDHTGEPTYADDFKGRFAFSLETSASTAYLQINNLKKEDTATYFCANYGFGYFDYWGQGTTLTVSS
VL: DVVMTQTPLSLPVSLGDQASISCRSSQSLVHSNGNSYLHWYLQKPGQSPKLLIYKVSNRFSGVPDRFSGSGSGTDFTLKISRVEAEDLGVYFCSQSTHVPYTFGGGTKLEIK
B9: chimeric antibody ch2 (antibody, V domains shown)
VH: B8 VH
VL: B8 VL with M4V, S26G, N35H, S36T, L38F, V90I
B10: chimeric antibody ch7 (antibody, V domains shown)
VH: QVQLKESGPGLVAPSQSLSITCTVSGFSLINYDIHWLRQPPGKGLEWLGVIWAGGRTHSDSALMSRLSISKDNSKSQVFLNVHSLRPEDTAIYYCAREGGDYYKYLDFWGQGTTLTVSS
VL: DVKMTQSPSSMYASLGERVTITCKASHDINSYLSWFQQKPGKSPKTLIYRANGLVDGVPSRFSGSGSGQDYSLTISSLEYEDMGVYYCLQYEMLPLTFGAGTKLELK
B11: chimeric antibody ch4 (antibody, V domains shown)
VH: B8 VH
VL: B7 VL

Numbering of substitutions follows the chain as printed.

In one test the target is T1, recombinant human IL-17A-mFc protein (human, UniProt Q16552 24-155, Biotinylated before the blocking assays of Examples 9 and 12 (sites not given); disulfide-linked dimer through IL-17A and the Fc.).
T1 construct: also called recombinant fusion protein IL-17A-mFc
T1 sequence: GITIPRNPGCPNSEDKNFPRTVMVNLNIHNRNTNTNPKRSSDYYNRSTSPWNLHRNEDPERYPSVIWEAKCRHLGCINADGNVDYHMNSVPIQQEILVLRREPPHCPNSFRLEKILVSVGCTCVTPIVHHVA
The test is described as follows: ELISA, human IL-17A-mFc coated (method of Example 8). How it is done: (§1) The binding specificity of the chimeric antibodies to human IL-17A was determined by conventional ELISA. Namely, 0.5 μg/mL of human IL-17A-mFc was immobilized on a 96-well plate and incubated for 60-90 minutes at 37° C. The solution in wells was then discarded, and the wells were washed 3 times with washing buffer, and blocked for 60 minutes with PBS containing 2% BSA. The plate was washed 3 times with washing buffer, and added with diluted chimeric antibodies at different concentrations. The antibodies were incubated at 37° C. for 60 minutes. The plate was then washed 3 times with washing buffer, and added with 10000-fold diluted biotinylated anti-IgG4 antibody. The system was incubated at 37° C. for 1 hour, washed three times with washing buffer, added with HRP-Strep 10000-fold diluted with washing buffer, and incubated at room temperature for 1 hour. After 3 washes with washing buffer, 100 μL of TMB substrate was added for color development. The system was incubated at room temperature for 30 minutes, and the reaction was terminated with 100 μL of 2 M hydrochloric acid solution. The absorbance at 450 nm was measured by a plate reader.
The binding specificity of the humanized antibodies to human IL-17A was determined by conventional ELISA. The method and procedures are described in Example 8.
Turning to B1, the EC50 came to 0.00864 µg/mL.

As for B2, the concentration giving a half-maximal response (EC50) amounted to 0.00676 µg/mL.

As for B3, the EC50 was determined as 0.00813 µg/mL.

In the case of B4, the EC50 stood at 0.0061 µg/mL.

Consider B5, for which the EC50 was 0.00635 µg/mL.

Consider B6, for which the EC50 worked out at 0.00578 µg/mL.

A further test has as its target T1, recombinant human IL-17A-mFc protein. Nature of the test: competitive FACS: blocks binding of biotinylated human IL-17A-mFc (3 µg/mL) to IL-17RA on 293F cells. On the procedure: (§2) The blocking of binding of IL-17A to IL-17RA on cells was detected by a competitive cell-based flow cytometry (FACS) assay. Briefly, chimeric antibody dilutions of different concentrations (3-fold diluted from 10 μg/mL) were mixed with the pre-biotinylated human IL-17A-mFC (3 μg/mL) obtained in Example 1, and incubated at room temperature for 30 minutes. […] After 3 washes with PBS, 5 μg/mL of anti-mouse IgG was added and the system was incubated at room temperature for 30 minutes.
For B7, the IC50 was found to be 1.45 µg/mL.

B8: the IC50 is 4.46 µg/mL.

With B9, the IC50 turned out to be 3.15 µg/mL.

In the case of B10, the IC50 worked out at 1.22 µg/mL.

A further test has the same target. The test is described as follows: competitive FACS: blocks binding of biotinylated human IL-17A-mFc to IL-17RA on 293F cells. On the procedure:
as §2
The blocking of binding of IL-17A to IL-17RA on cells was detected by a competitive cell-based flow cytometry (FACS) assay. The method and procedures are described in Example 9.
Take B1: the IC50 is 0.781 µg/mL.

In the case of B2, the IC50 came to 0.829 µg/mL.

On to B3, for which the IC50 was 0.868 µg/mL.

For the molecule B4, the IC50 was 0.467 µg/mL.

For B5, the IC50 amounted to 0.578 µg/mL.

On to B6, for which the IC50 was 0.483 µg/mL.

For a further test the target is unchanged. The test is described as follows: ELISA, human IL-17A-mFc (0.5 µg/mL) coated, biotinylated anti-IgG4 detection. How it is done: as §1
(In general: In an ELISA, binding on a coated surface is turned into a signal by an enzyme label.)
Take B7: the EC50 is 0.0154 µg/mL.

With B8, the half-maximal effective concentration (EC50) was determined as 0.00662 µg/mL.

In the case of B11, the EC50 stood at 0.0885 µg/mL.

On to B9, for which the EC50 was determined as 0.00517 µg/mL.

For B10, the EC50 stood at 0.04 µg/mL.

For a further test, the target named is T2, human IL-17RA on stable IL-17RA 293F cell lines (human) (UniProt Q96F46).
T2 sequence (looked up): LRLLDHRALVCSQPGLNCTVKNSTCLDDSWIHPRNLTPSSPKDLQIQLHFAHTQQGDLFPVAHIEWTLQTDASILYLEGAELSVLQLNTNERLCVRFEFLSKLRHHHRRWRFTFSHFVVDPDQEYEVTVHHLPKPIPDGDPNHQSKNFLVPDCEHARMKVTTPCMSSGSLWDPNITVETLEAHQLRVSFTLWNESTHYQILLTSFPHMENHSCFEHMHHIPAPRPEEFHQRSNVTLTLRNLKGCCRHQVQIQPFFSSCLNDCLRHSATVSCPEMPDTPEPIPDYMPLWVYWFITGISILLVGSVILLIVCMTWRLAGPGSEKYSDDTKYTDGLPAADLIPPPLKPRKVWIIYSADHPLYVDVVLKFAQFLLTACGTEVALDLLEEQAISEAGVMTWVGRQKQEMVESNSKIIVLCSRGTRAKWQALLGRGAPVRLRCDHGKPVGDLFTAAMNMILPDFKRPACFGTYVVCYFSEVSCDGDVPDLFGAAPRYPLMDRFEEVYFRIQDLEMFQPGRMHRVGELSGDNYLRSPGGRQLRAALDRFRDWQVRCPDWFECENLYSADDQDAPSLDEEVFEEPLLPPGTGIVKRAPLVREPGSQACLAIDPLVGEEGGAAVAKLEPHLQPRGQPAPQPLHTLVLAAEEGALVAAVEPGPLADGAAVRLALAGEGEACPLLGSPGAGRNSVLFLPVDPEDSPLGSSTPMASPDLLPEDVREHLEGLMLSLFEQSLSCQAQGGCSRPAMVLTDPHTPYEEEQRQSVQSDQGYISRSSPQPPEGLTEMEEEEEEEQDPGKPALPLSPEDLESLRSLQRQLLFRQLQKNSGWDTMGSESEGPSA
The test is described as follows: FACS, 3 µg/mL IL-17A-mFc on stable IL-17RA 293F cells, anti-mouse IgG detection; control group (1% BSA, no IL-17A-mFc) gave 308.
In turn, “recombinant human IL-17A-mFc protein (from UniProt Q16552 24-155) (Fc fusion)” had an MFI (mean fluorescence intensity) of 7700 MFI.

As a reminder, the EC50 is the concentration needed to bring the measured effect to its halfway point. By IC50 is commonly meant the concentration that gives 50% inhibition.
